Test results taken from patent publication US20160264649A1.

What was measured:
Experiment in all cases: cell-based or functional assay
[1] = biological target: HIV-1 Env of isolate MG RM-C-027 (subtype C) (HIV-1)
[2] = biological target: HIV-1 MGRM-A-012 Env (HIV-1)
[3] = biological target: HIV-1 MGRM-A-003 Env (HIV-1)
[4] = biological target: HIV-1 MGRM-A-002 Env (HIV-1)
[5] = biological target: HIV-1 MGRM-AE-004 Env (HIV-1)
[6] = biological target: HIV-1 Env of isolate MG RM-C-026 (subtype C) (HIV-1)
[7] = biological target: HIV-1 MGRM-A-007 Env (HIV-1)
[8] = biological target: HIV-1 MGRM-A-001 Env (HIV-1)
[9] = biological target: HIV-1 MGRM-AE-001 Env (HIV-1)
[10] = biological target: HIV-1 MGRM-A-004 Env (HIV-1)
[11] = biological target: HIV-1 Env of isolate MG RM-C-022 (subtype C) (HIV-1)
[12] = biological target: HIV-1 MGRM-AG-006 Env (HIV-1)
[13] = biological target: HIV-1 93WR029 Env (HIV-1)
[14] = biological target: HIV-1 MGRM-A-014 Env (HIV-1)
[15] = biological target: HIV-1 93UG077 Env (HIV-1)
[16] = biological target: HIV-1 MGRM-AE-005 Env (HIV-1)
[17] = biological target: HIV-1 MGRM-AE-008 Env (HIV-1)
[18] = biological target: HIV-1 Env of isolate MG RM-C-025 (subtype C) (HIV-1)
[19] = biological target: HIV-1 MGRM-AG-011 Env (HIV-1)
[20] = biological target: HIV-1 92TH021 Env (HIV-1)
[21] = biological target: HIV-1 94UG103 Env (HIV-1)
[22] = biological target: HIV-1 MGRM-A-006 Env (HIV-1)
[23] = biological target: HIV-1 MGRM-AG-001 Env (HIV-1)
[24] = biological target: HIV-1 MGRM-AG-002 Env (HIV-1)
[25] = biological target: HIV-1 MGRM-AG-003 Env (HIV-1)
[26] = biological target: HIV-1 Env of isolate MG RM-C-028 (subtype C) (HIV-1)
[27] = biological target: HIV-1 92WR026 Env (HIV-1)
[28] = biological target: HIV-1 94KE105 Env (HIV-1)
[29] = biological target: HIV-1 MGRM-AG-005 Env (HIV-1)
[30] = biological target: HIV-1 MGRM-AE-002 Env (HIV-1)
[31] = biological target: HIV-1 MGRM-A-005 Env (HIV-1)
[32] = biological target: HIV-1 MGRM-AG-013 Env (HIV-1)
[33] = biological target: HIV-1 MGRM-AG-008 Env (HIV-1)
[34] = biological target: HIV-1 MGRM-AE-003 Env (HIV-1)
[35] = biological target: HIV-1 92WR009 Env (HIV-1)
[36] = biological target: HIV-1 Env of isolate MG RM-C-024 (subtype C) (HIV-1)
[37] = biological target: HIV-1 92RW008 Env (HIV-1)
[38] = biological target: HIV-1 92UG037 Env (HIV-1)
[39] = biological target: HIV-1 Env of isolate MG RM-C-020 (subtype C) (HIV-1)
[40] = biological target: HIV-1 MGRM-A-013 Env (HIV-1)
[41] = biological target: HIV-1 92UG031 Env (HIV-1)
HIV-1 VLGCA1 Env (HIV-1) = biological target: HIV-1 VLGCA1 Env (HIV-1)
[42] = biological target: HIV-1 Env of isolate MG RM-C-023 (subtype C) (HIV-1)
[43] = biological target: HIV-1 MGRM-A-008 Env (HIV-1)
HIV-1 CMU02 Env (HIV-1) = biological target: HIV-1 CMU02 Env (HIV-1)
[44] = biological target: HIV-1 MGRM-AG-012 Env (HIV-1)
[45] = biological target: HIV-1 92WR024 Env (HIV-1)
[46] = biological target: HIV-1 MGRM-AG-009 Env (HIV-1)
[47] = biological target: HIV-1 92WR020 Env (HIV-1)
[48] = biological target: HIV-1 MGRM-A-009 Env (HIV-1)
[49] = biological target: HIV-1 MGRM-A-011 Env (HIV-1)
[50] = biological target: HIV-1 92WR021 Env (HIV-1)
[51] = biological target: HIV-1 Env of isolate MG RM-C-019 (subtype C) (HIV-1)
[52] = biological target: HIV-1 MGRM-AE-007 Env (HIV-1)
[53] = biological target: HIV-1 MGRM-AE-006 Env (HIV-1)
[54] = biological target: HIV-1 MGRM-A-010 Env (HIV-1)

5343_B08 (PGT-135) (antibody)
IC50 [1]: > 50 µg/mL
IC50 [2]: > 50 µg/mL
IC50 [3]: > 50 µg/mL
IC50 [4]: > 50 µg/mL
IC50 [5]: > 50 µg/mL
IC50 [6]: 0.004 µg/mL
IC50 [7]: > 50 µg/mL
IC50 [8]: > 50 µg/mL
IC50 [9]: > 50 µg/mL
IC50 [10]: > 50 µg/mL
IC50 [11]: > 50 µg/mL
IC50 [12]: 17.9 µg/mL
IC50 [13]: > 50 µg/mL
IC50 [14]: 0.636 µg/mL
IC50 [15]: > 50 µg/mL
IC50 [16]: > 50 µg/mL
IC50 [17]: > 50 µg/mL
IC50 [18]: > 50 µg/mL
IC50 [19]: > 50 µg/mL
IC50 [20]: > 50 µg/mL
IC50 [21]: > 50 µg/mL
IC50 [22]: > 50 µg/mL
IC50 [23]: > 50 µg/mL
IC50 [24]: > 50 µg/mL
IC50 [25]: > 50 µg/mL
IC50 [26]: 1.47 µg/mL
IC50 [27]: 0.068 µg/mL
IC50 [28]: 0.063 µg/mL
IC50 [29]: > 50 µg/mL
IC50 [30]: > 50 µg/mL
IC50 [31]: > 50 µg/mL
IC50 [32]: > 50 µg/mL
IC50 [33]: > 50 µg/mL
IC50 [34]: > 50 µg/mL
IC50 [35]: > 50 µg/mL
IC50 [36]: > 50 µg/mL
IC50 [37]: 1.42 µg/mL
IC50 [38]: 3.67 µg/mL
IC50 [39]: > 50 µg/mL
IC50 [40]: > 50 µg/mL
IC50 [41]: > 50 µg/mL
IC50 (HIV-1 VLGCA1 Env (HIV-1)): > 50 µg/mL
IC50 [42]: 0.061 µg/mL
IC50 [43]: > 50 µg/mL
IC50 (HIV-1 CMU02 Env (HIV-1)): > 50 µg/mL
IC50 [44]: 41.9 µg/mL
IC50 [45]: > 50 µg/mL
IC50 [46]: > 50 µg/mL
IC50 [47]: 0.067 µg/mL
IC50 [48]: > 50 µg/mL
IC50 [49]: > 50 µg/mL
IC50 [50]: > 50 µg/mL
IC50 [51]: 0.264 µg/mL
IC50 [52]: > 50 µg/mL
IC50 [53]: > 50 µg/mL
IC50 [54]: > 50 µg/mL
